Two molecules from patent US20120028271A1 can be followed below.

Assay [1] has as its target proteasome of mammalian cell and human tissue extracts (detected through Rpt1, Rpn2, Rpn1 and 20S alpha subunits and chymotryptic activity) (human). The assay is described as follows: GST pull-down from cell extracts, co-purified chymotryptic activity standardized to UbL-A, 14 measurements.
For assay [2] the target is unchanged. The experiment in a line: GST pull-down from cell extracts, co-purified chymotryptic activity, 5 measurements.

proteasome of mammalian cell and human tissue extracts (detected through Rpt1, Rpn2, Rpn1 and 20S alpha subunits and chymotryptic activity) (human), sequence (P35998 2-433, form in doubt, chain 1 of 2): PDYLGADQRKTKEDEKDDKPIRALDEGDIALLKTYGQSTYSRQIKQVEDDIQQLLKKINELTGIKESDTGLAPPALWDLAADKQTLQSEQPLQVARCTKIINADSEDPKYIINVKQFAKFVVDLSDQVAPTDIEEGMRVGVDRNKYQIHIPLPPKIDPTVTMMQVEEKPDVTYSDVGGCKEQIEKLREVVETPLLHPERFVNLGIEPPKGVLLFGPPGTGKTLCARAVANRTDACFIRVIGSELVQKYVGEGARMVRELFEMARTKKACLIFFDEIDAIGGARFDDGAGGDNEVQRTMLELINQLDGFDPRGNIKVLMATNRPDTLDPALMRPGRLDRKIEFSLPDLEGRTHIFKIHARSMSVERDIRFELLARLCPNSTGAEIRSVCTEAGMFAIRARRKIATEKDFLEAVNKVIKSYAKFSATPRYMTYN
proteasome of mammalian cell and human tissue extracts (detected through Rpt1, Rpn2, Rpn1 and 20S alpha subunits and chymotryptic activity) (human), sequence (B8ZZH9 whole entry, form in doubt, chain 2 of 2, further chain): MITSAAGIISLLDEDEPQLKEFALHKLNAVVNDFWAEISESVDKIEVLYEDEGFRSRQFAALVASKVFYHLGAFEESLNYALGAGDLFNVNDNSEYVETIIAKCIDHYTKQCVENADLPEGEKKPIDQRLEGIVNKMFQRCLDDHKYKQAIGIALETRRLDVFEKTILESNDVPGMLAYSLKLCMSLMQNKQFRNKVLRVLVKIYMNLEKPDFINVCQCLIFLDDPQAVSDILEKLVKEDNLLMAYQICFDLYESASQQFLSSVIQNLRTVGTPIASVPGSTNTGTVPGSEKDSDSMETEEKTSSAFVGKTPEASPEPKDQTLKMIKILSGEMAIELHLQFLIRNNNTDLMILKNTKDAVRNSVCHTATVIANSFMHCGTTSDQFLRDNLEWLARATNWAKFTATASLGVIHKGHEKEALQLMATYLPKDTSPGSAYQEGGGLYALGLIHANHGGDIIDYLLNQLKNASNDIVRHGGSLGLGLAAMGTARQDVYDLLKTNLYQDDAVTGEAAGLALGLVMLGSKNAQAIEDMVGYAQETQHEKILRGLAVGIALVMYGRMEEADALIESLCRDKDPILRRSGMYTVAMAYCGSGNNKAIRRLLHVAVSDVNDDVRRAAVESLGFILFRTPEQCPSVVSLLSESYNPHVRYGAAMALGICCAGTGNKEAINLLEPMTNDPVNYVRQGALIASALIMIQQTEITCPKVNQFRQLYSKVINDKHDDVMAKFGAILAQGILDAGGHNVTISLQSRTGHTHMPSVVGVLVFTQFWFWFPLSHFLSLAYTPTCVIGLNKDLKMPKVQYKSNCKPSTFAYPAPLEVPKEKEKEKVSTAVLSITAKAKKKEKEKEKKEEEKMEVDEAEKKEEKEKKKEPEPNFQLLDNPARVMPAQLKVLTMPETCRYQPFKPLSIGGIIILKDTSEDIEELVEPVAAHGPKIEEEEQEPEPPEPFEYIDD

The molecule “GST-UbL-B (UbL domain of human hHR23B, residues 1-78) (from UniProt P54727 1-78)” gave a fold proteasome purified (chymotryptic activity) relative to UbL-A in assay [1] of 2.94 fold.

B1: GST-UbL-A^1-78 (UbL domain of hHR23A ending in Val-Val-Val-Met-Val-Thr-Lys) (protein, not shown: a dimerising Fc or GST)
chain: MAVTITLKTLQQQTFKIRMEPDETVKVLKEKIEAEKGRDAFPVAGQKLIYAGKILSDDVPIRDYRIDEKNFVVVMVTK
The molecule B1 displayed a fold increase of proteasome interaction / associated chymotryptic activity relative to UbL-A^1-79 in assay [2] of 2.5 fold.
